Experimental data from the RNAGym collection of RNA variant scans (doi:10.1073/pnas.2313332121).

B1: TPR t1 (parent)
chain: GACCAAUCUGCCCUCAGAGCUCGAGAACAUCUUCGGAUGCAGAGGAGGCAGGCUUCGGUGGCGCGAUAGCGCCAACGUCCUCAACCUCCAAUGCAUCCCACCACAUGAUGAUGCCUGAAGAGCCUUGGUUUUUUG

Variants of: B1
Test: polymerase ribozyme fitness, log enrichment relative to wild type (log ratio); higher = more active; in vitro selection for triplet polymerase activity
Summary of the method: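 One round of in vitro selection, in triplicate, was applied to PCR-built, transcribed mutant libraries of each subunit of a heterodimeric triplet polymerase ribozyme. The steps were annealing with a biotinylated primer, partner subunit and triplets, incubation frozen at −7 °C, gel excision of extended constructs, streptavidin-bead capture and RT-PCR. Fitness is the logarithm, base 2, of genotype enrichment over wild-type enrichment from inverse-variance-weighted replicate averages of Illumina-sequenced inputs and outputs, keeping genotypes with ≥10 input reads and ≥1 read per output.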

| Variant | polymerase ribozyme fitness (log ratio) |
| --- | --- |
| GACCAAUCUGCGCUCAGAGCUCGAGAACAUCUUCGGAUGCAGAGGAGGCAGGCUUCGGUGUCGCGAUAGCGCCAACGUCCUCAACCUCCAAUGCAUCCCACCACAUUAUGAUGCCUGAAGAGCCUUGGUUUUUUG [C12G G61U G107U] | -4.66 |
| GACCAAUCUGCGCUCAGAGCUCGAGAACAUCUUCGGAUGCAGAGGAGGCAGGCUUCGGUGGCGCGAUAUCGCCAACGUCCUCAACCUCCAAUUGAAUCCACCACAUGAAGAUGCCUGAAGAGCCUUGGUUUUUUG [C12G G69U G93U C94G U96A C97U U109A] | -5.02 |
| GACCAAUCUGCGCUCAGAGCUCGAGAACAUCUUCGGAUGCAGAGGAGGCAGGCUUCGGUGGCGCGAUAUCGCCAACGUCCGCAACCUCCUAUGCAUCCCACCACAUGAUGAUGCCUGAAGAGCCUUUGUUUUUUG [C12G G69U U81G A90U G127U] | -4.07 |
| GACCAAUCUGCGCUCAGAGCUCGAGAACAUCUUCGGAUGCAGAGGAGGCAGGCUUCGGUGGCGCGAUAGCCCCAACGUCCUCAACCUCCAAUGCAACCCACCACAUGGUGAUGCCUGAAGAGGCUUGGUUUUUUG [C12G G71C U96A A108G C123G] | -4.58 |
| GACCAAUCUGCGCUCAGAGCUCGAGAACAUCUUCGGAUGCAGAGGAGGCAGGCUUCGGUGGCGCGAUAGCGCCAACGUCCUCAACCUCCAAUAUAUCCCACCACAUGAUGAUGCCUGAAGAGCCUUGGUUUUUUG [C12G G93A C94U] | -1.83 |
| GACCAAUCUGCGCUCAGAGCUCGAGAACAUCUUCGGAUGCAGAGGAGGCAGGCUUCGGUGGCGCGAUAGCGCCAACGUCCUCAACCUCCAAUGCAUCCCACCACAUGAUGAUGCCUGAACAGCCUUGGUUUUUUG [C12G G120C] | 1.23 |
| GACCAAUCUGCGCUCAGAGCUCGAGAACAUCUUCGGAUGCAGAGGAGGCAGGCUUCGGUGGCGCGAUAGCGCCAACGUCCUCAACCUCCAAUGCAUCCCACCACAUGAUGAUGCCUGAACGGCCUUGGUUUUUUG [C12G G120C A121G] | -1.12 |
| GACCAAUCUGCGCACAGAGCUCGAGAACAUCUUCGGAGGCAGAGGAGGCAGGCUUCGGUGGCGCGAUAGCGCCAAUGUCCUCAAGCUCCAAUGCAUCCCACCACAUGAUGAUGCCUGAAGAGCCUUGGUUUUUUG [C12G U14A U38G C76U C85G] | -3.19 |
| GACCAAUCUGCGCCCAUAGCUGGAGAACAUCUUCGGAUGCAGAGGAGGGAGGCUUCGGUGGCGCGAUAGCGCCAACGUCCUCAACCUCCAAUGCAUCCCACCACAUGAUGAUGCCUCAAGAGCCUUGGUAUUUUG [C12G U14C G17U C22G C49G G117C U130A] | -6.43 |
| GACCAAUCUGCGCCCAGAGCUCGAGAACAUCUUCGGAUGCAGAGGAGGCAGGCUUCGGGGGCGCGAUAGCGCCAACGUCCUCAACCUCCAAUGCAUCCCACCACAUGAUGAUGCCUGAAGAGCCUUGGUUUUUUG [C12G U14C U59G] | -1.18 |
| GACCAAUCUGCGCGCAGAGCUCGAGAACAUCUUCGGAUGCAGAGGAGGCAGGCUUCAGUGGCGCGAUAGCGCCAACGUCCUCAACCUCCAAUGCAUCCCACCACAUGAUGAUUCCUGAAGAGCCUUGGUUUUUUG [C12G U14G G57A G113U] | -7.24 |
| GACCAAUCUGCGCGCAGAGCUCGAGAACAUCUUCGGAUGCAGAGGAGGCAGGCUUCGGUGGCGCGAUAGCGCCAACGUCCUCAACCUCCAAUGCAUCCCACCACAUUAUGAUGUCUGAAUAGUCUUGGUUUUAUG [C12G U14G G107U C114U G120U C123U U133A] | -4.14 |
| GACCAAUCUGCGCUCAGAGCUCGAGAACACCUUCGGAUGCUGAGGAGACAGGCUUCGGUGGCGCGAUAGCGCCAACGUCCUCAACCUCCAAUGCAUCCCACCACAUGAUGAUGCCUGAAGAGCCUUGGUUUUUUG [C12G U30C A41U G48A] | -5.05 |
| GACCAAUCUGCGCUCAGAGCUCGAGAACAUCAUCGGUUGCAGAGGAGGCAGGCUUCGGUGGCGCGAUAGCGCCAACGUCCUCAACCUCCAAUGCAUCCCACCACAUGAUGAUGCCUGAAGAGCCUUGGUUUUUUG [C12G U32A A37U] | -3.65 |
| GACCAAUCUGCGCUCAGAGCUCGAGAACAUCUUCGGAUGCAGAGGAGGCAGGCUACGGUGGCGCGAUAGUGCCAACGUCCUCAACCUCCAAUGCAUCCCACCACAUGAUGAUCCCUGAAGAGCCUUGGUUUUUUG [C12G U55A C70U G113C] | -3.9 |
| GACCAAUCUGCGCUCAGAGCUCGAGAACAUCUUCGGAUGCAGAGGAGGCAGGCUACGGUGGCGCGAUAGCGCCAACGUCCUCAACCACCAAUGCAUCCCACCACAUGAUGAUGCCUGAAGAGCCUUGGUUUUUUG [C12G U55A U87A] | 0.0839 |
| GACCAAUCUGCGCUCAGAGCUCGAGAACAUCUUCGGAUGCAGAGGAGGCAGGCUUCGGGUGCGCGAUAGCGCCAACGUCCUCAACCUCCAAUGCUUCCCACCACAUGAUCAUGCCUGAAGAGCCUUGGUUUUUUG [C12G U59G G60U A95U G110C] | -5.19 |
| GACCAAUCUGCGCUCAGAGCUCGAGAACAUCUUCGGAUGCAGAGGAGGCAGGCUUCGGUGGCGCGAUAGCGCCAACGUCCUCAACCACCAAUGCAUCCCACCACAUGAUGAUGCCUGAAGAGCCUUGGUUUUUUG [C12G U87A] | -0.0361 |
| GACCAAUCUGCGCUCAGAGCUCGAGAACAUCUUCGGAUGCAGAGGAGGCAGGCUUCGGUGGCGCGAUAGCGCCAACGUCCUCAACCUCCAAUGCAUCCCACCACAUGAUGAAGCCUGAAGAGCCUUGGUUUUGUG [C12G U112A U133G] | 1.61 |
| GACCAAUCUGCUCUCUGAGCUCGAGAACAUCUUCGGAUGCAGAGGAGGCAGGCUUCGGUGGCCCGAUAGCGCCAACGUCCUCAACCUCCAAUGCAUCCCACCACCUGAUGAUGCCUGAAGAGCGUUGGUUUUUUG [C12U A16U G63C A105C C124G] | -2.25 |
| GACCAAUCUGCUCUCAGCGCUCGAGAACAUCUUCGGAUGCAGAGGAGGCAGGCUUCGGUGGCGCGAUAGCGCCAACGUCCUCAACCUCCAAUGCAUCCCACCACAUGAUGAUGCCUGAAGAGCCUUGGUUUUUUG [C12U A18C] | -1.45 |
